± gives the uncertainty stated by the source.
Test: self-splicing fitness, log relative to wild type (ln ratio); higher = more splicing; Tetrahymena group I intron in knt gene, E. coli kanamycin selection, DiMSum; sequences stand for … in CUCUCU…GGAGGGAAAAGUUAUCAGGCAUGCACCUGGUAGCUAGUCUUUAAACCAAUAGAUUGCAUCGGUUUAAAAGGCAAGACCGUCAAAUUGCGGGAAAGGGGUCAACAGCCGUUCAGUACCAAGUCUCAGGGGAAACUUUGAGAUGGCCUUGCAAAGGGUAUGGUAAUAAGCUGACGGACAUGGUCCUAACCACGCAGCCAAGUCCUAAGUCAACAGAUCUUCUGUUGAUAUGGAUGCAGUUCACAGACUAAAUGUCGGUCGGGGAAGAUGUAUUCUUCUCAUAAGAUAUAGUCGGACCUCUCCUUAAUGGGAGCUAGCGGAUGAAGUGAUGCAACACUGGAGCCGCUGGGAACUAAUUUGUAUGCGAAAGUAUAUUGAUUAGUUUUGGAGUACUCGUGGUCG
Outline: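 DiMSum derived fitness as the error-weighted combination of fold changes across replicates, kanamycin versus no kanamycin, normalised to wild type. E. coli BL21(DE3) held the library, which randomised all eight P1ex-region intron nucleotides within the knt kanamycin-resistance gene on pET-22b(+). Six replicate transformations grew overnight at 37°C or 30°C on LB agar with or without 25 μg/mL kanamycin, also containing 100 μg/mL carbenicillin, 50 μM IPTG and 0.2% rhamnose, and pooled colonies were amplicon-sequenced on an Illumina HiSeq 2500.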

Row | Sequence | self-splicing fitness (ln) (30 °C) | self-splicing fitness (ln) (37 °C)
1 | UCCAAGCAAUAUUACGUGGC | -3.9 ± 0.27 | -2.97 ± 0.33
2 | CUAAAGCAAUAUUACGCCAC | -2.89 ± 0.49 | 
3 | GCCAAGCAAUAUUACGCAUC | -0.673 ± 0.082 | 0.0458 ± 0.095
4 | GCAAAGCAAUAUUACGAAAG | -2.86 ± 0.19 | -1.94 ± 0.21
5 | CAGCAGCAAUAUUACGCGAA | -2.55 ± 0.13 | -1.82 ± 0.15
6 | AGAAAGCAAUAUUACGCACU | -0.82 ± 0.15 | -1.17 ± 0.18
7 | GGGCAGCAAUAUUACGGCUA | -0.49 ± 0.13 | 0.227 ± 0.14
8 | UAACAGCAAUAUUACGACGC | -2.37 ± 0.12 | -1.76 ± 0.16
9 | AGCUAGCAAUAUUACGCGAG | -2.38 ± 0.22 | -3.12 ± 0.32
10 | UCGAAGCAAUAUUACGAAAU |  | -2.56 ± 0.41
11 | CCCGAGCAAUAUUACGGGAG | -3.25 ± 0.24 | -1.5 ± 0.19
12 | CCUGAGCAAUAUUACGAUUU | -3.27 ± 0.19 | -2.3 ± 0.16
13 | UACAAGCAAUAUUACGCGAC | -3.51 ± 0.27 | -1.5 ± 0.22
14 | AUUAAGCAAUAUUACGAGAC | -3.39 ± 0.48 | -1.46 ± 0.27
15 | CUUGAGCAAUAUUACGUCGC | -2.54 ± 0.21 | -1.81 ± 0.19
16 | UCUCAGCAAUAUUACGCUCU | -3.26 ± 0.26 | -2.68 ± 0.41
17 | CUCUAGCAAUAUUACGCCUC | -1.49 ± 0.3 | 
18 | UCGCAGCAAUAUUACGUCUU | -1 ± 0.11 | -0.165 ± 0.12
19 | GUCGAGCAAUAUUACGAAGA | -3.82 ± 0.43 | -1.74 ± 0.31
20 | CGGCAGCAAUAUUACGUUCU | -0.518 ± 0.08 | -0.416 ± 0.11
21 | CCGCAGCAAUAUUACGUGCA | -3.71 ± 0.33 | -1.54 ± 0.14
22 | UCUUAGCAAUAUUACGGCUU | -3.65 ± 0.41 | -2.63 ± 0.48
23 | AGUUAGCAAUAUUACGUUAC | -3.26 ± 0.3 | -2.69 ± 0.33
24 | UCGAAGCAAUAUUACGUUUC | -1.9 ± 0.14 | -3.66 ± 0.36
25 | GAAAAGCAAUAUUACGAACG | -0.893 ± 0.083 | -0.364 ± 0.11
26 | CAUGAGCAAUAUUACGCGAU | -1.87 ± 0.18 | -1.61 ± 0.32

Row | Sequence | self-splicing fitness (ln) (30 °C) | self-splicing fitness (ln) (37 °C)
27 | UAGAAGCAAUAUUACGAUGG | -1.84 ± 0.097 | -1.32 ± 0.12
28 | CUGAAGCAAUAUUACGAGGA | -3.46 ± 0.17 | -1.95 ± 0.2
29 | AUCCAGCAAUAUUACGAUCU | -1.84 ± 0.091 | -0.641 ± 0.12
30 | CAUGAGCAAUAUUACGCGGA | -2.6 ± 0.2 | -1.64 ± 0.17
31 | ACGUAGCAAUAUUACGCUCG | -2.16 ± 0.12 | -0.0752 ± 0.15
32 | UCUGAGCAAUAUUACGCCCG | -2.56 ± 0.28 | -2.38 ± 0.49
33 | AGACAGCAAUAUUACGGUCU | -3.78 ± 0.23 | -2.48 ± 0.25
34 | GACUAGCAAUAUUACGCUGU | -3.22 ± 0.2 | -2.83 ± 0.28
35 | AUAAAGCAAUAUUACGAACC | -1.28 ± 0.18 | -0.77 ± 0.25
36 | UAGUAGCAAUAUUACGUGAC | -2.58 ± 0.15 | -2.47 ± 0.18
37 | CGAAAGCAAUAUUACGAUGU | -1.52 ± 0.074 | -1.15 ± 0.13
38 | AUAGAGCAAUAUUACGGGGG | -3.2 ± 0.27 | -2.72 ± 0.4
39 | GCCAAGCAAUAUUACGAAGU | -1.12 ± 0.049 | -0.235 ± 0.064
40 | GACCAGCAAUAUUACGUGAU | -0.306 ± 0.05 | -0.151 ± 0.063
41 | CACCAGCAAUAUUACGGUAA | -1.18 ± 0.056 | -0.566 ± 0.061
42 | CCUUAGCAAUAUUACGUCUA |  | -2.65 ± 0.23
43 | AUUCAGCAAUAUUACGCAGA | -2.28 ± 0.21 | -0.845 ± 0.12
44 | AUCCAGCAAUAUUACGGUGU | -1.07 ± 0.062 | -0.834 ± 0.079
45 | CUUGAGCAAUAUUACGGUCC | -0.924 ± 0.28 | 
46 | CGCCAGCAAUAUUACGUUAU | -3.32 ± 0.16 | -2.22 ± 0.18
47 | CACCAGCAAUAUUACGAACU | -3.98 ± 0.2 | -2.05 ± 0.17
48 | ACUAAGCAAUAUUACGACCC | -1.08 ± 0.25 | -0.275 ± 0.32
49 | UCGCAGCAAUAUUACGUCAC | -3.57 ± 0.15 | -2.85 ± 0.16
50 | GCCUAGCAAUAUUACGCAAA | -0.846 ± 0.14 | -1.41 ± 0.16
51 | AAUUAGCAAUAUUACGGUUC | -3.38 ± 0.22 | -2.65 ± 0.26
52 | GUCAAGCAAUAUUACGCUAA | -1.48 ± 0.15 | -1.45 ± 0.14

Row | Sequence | self-splicing fitness (ln) (30 °C) | self-splicing fitness (ln) (37 °C)
53 | AAUGAGCAAUAUUACGAGUA | -3.91 ± 0.25 | -2.54 ± 0.27
54 | GGCUAGCAAUAUUACGAUUA | -0.803 ± 0.085 | -0.572 ± 0.079
55 | CCUUAGCAAUAUUACGUGAA | -4.2 ± 0.24 | -3.37 ± 0.28
56 | GAAUAGCAAUAUUACGGCCG | -0.339 ± 0.18 | -0.0585 ± 0.21
57 | ACCAAGCAAUAUUACGAGGU | -3.76 ± 0.21 | -2.22 ± 0.18
58 | UUGAAGCAAUAUUACGGAUG | 0.196 ± 0.1 | 0.219 ± 0.12
59 | CGGUAGCAAUAUUACGCUUU | -3.21 ± 0.27 | -0.482 ± 0.12
60 | CUGUAGCAAUAUUACGGACU | -3.43 ± 0.3 | -1.83 ± 0.24
61 | CAGCAGCAAUAUUACGGUGU | -3.61 ± 0.15 | -2.72 ± 0.17
62 | UUGAAGCAAUAUUACGUCUG | 0.509 ± 0.059 | 0.84 ± 0.081
63 | ACACAGCAAUAUUACGUGCU | -1.34 ± 0.055 | -0.611 ± 0.065
64 | UGGGAGCAAUAUUACGUGAG | -2.33 ± 0.18 | -1.14 ± 0.14
65 | CUACAGCAAUAUUACGCGUA | -3.72 ± 0.31 | -2.84 ± 0.3
66 | GACCAGCAAUAUUACGUUAU | -0.752 ± 0.045 | -0.147 ± 0.062
67 | UUUAAGCAAUAUUACGUAUC |  | -1.84 ± 0.33
68 | AACUAGCAAUAUUACGCGCG | -0.639 ± 0.082 | -0.378 ± 0.12
69 | GUCCAGCAAUAUUACGCUGU | -0.609 ± 0.073 | -0.386 ± 0.076
70 | UUUUAGCAAUAUUACGUAUC |  | -2.56 ± 0.33
71 | CGCGAGCAAUAUUACGCCUA |  | -2.42 ± 0.45
72 | GUCCAGCAAUAUUACGCAAU | -0.658 ± 0.071 | 0.419 ± 0.087
73 | UAAAAGCAAUAUUACGAUUA | 0.154 ± 0.073 | 0.0591 ± 0.088
74 | AAGAAGCAAUAUUACGGAGU | -3.02 ± 0.15 | -2.86 ± 0.17
75 | AAGCAGCAAUAUUACGGCGC | -0.59 ± 0.2 | -1.02 ± 0.19
76 | UAAAAGCAAUAUUACGGCUG | 0.0596 ± 0.093 | 0.0696 ± 0.12
77 | CGCAAGCAAUAUUACGCCGU | -2.67 ± 0.25 | -0.883 ± 0.14

Reference: the supplement of paper PMC7877785
